{"source": "patent CN116178530A", "experiment_in_all_cases": "cell-based or functional assay", "key": {"[1]": {"target": "SARS-CoV-2的Delta突变株(B.1.617.2)假病毒的刺突蛋白 (SARS-CoV-2) (UniProt P0DTC2)"}, "[2]": {"target": "SARS-CoV-2的Alpha突变株(B.1.1.7)假病毒的刺突蛋白 (SARS-CoV-2) (UniProt P0DTC2)"}, "[3]": {"target": "SARS-CoV-2的Kappa突变株(B.1.617.1)假病毒的刺突蛋白 (SARS-CoV-2) (UniProt P0DTC2)"}}, "data": [{"substance": "CB6 (antibody)", "values": [{"measurement": "假病毒中和 IC50 (荧光素酶报告基因, 293-ACE2细胞)", "setting": "[1]", "result": 3.43, "unit": "ng/mL"}, {"measurement": "假病毒中和 IC50 (荧光素酶报告基因, 293-ACE2细胞)", "setting": "[2]", "result": 55.7, "unit": "ng/mL"}, {"measurement": "假病毒中和 IC50 (荧光素酶报告基因, 293-ACE2细胞)", "setting": "[3]", "result": 14.7, "unit": "ng/mL"}]}]}
